Test results from PMC6547859 (The Journal of Experimental Medicine, 2019).

Molecular target: the molecule itself
Assay: SEC

B1: FLAG-tagged Regnase-1, full-length, phosphorylated (Expi293F, coexpressed with Myc-Act1 and HA-TBK1 or HA-IKKi) (natural protein, UniProt Q5D1E7 1-596, looked up)
chain: MSDPCGTKPVQESNPTMSLWSLEDRHSSQGRPQPDQDPVAKEAPTSELQMKVDFFRKLGYSSSEIHSVLQKLGVQADTNTVLGELVKHGSATERECQALTAPSPQPPLVPRGGSTPKPSTLEPSLPEEDREGSDLRPVVIDGSNVAMSHGNKEVFSCRGILLAVNWFLERGHTDITVFVPSWRKEQPRPDVPITDQHILRELEKKKILVFTPSRRVGGKRVVCYDDRFIVKLAFESDGVVVSNDTYRDLQGERQEWKRFIEERLLMYSFVNDKFMPPDDPLGRHGPSLDNFLRKKPLPSEHRKQPCPYGKKCTYGIKCRFFHPERPSRPQRSVADELRANALLSPPRTPVKDKSSQRPSPASQSSSVSLEAEPGSLDGKKLGARSSPGPHREGSPQTCAPAGRSLPVSGGSFGPTEWLAHTQDSLPYTSQECLDSGIGSLESQMSELWGVRGGSPGESGPTRGPYAGYHSYGSKVPAAPSFSPFRPAMGAGHFSVPTDYVPPPPTYPSREYWSEPYPLPPPTPVLQEPQRPSPGAGGGPWGRVGDLAKERAGVYTKLCGVFPPHLVEAVMRRFPQLLDPQQLAAEILSYKSQHLSE
modifications: phosphorylated by coexpression with Act1 and TBK1 or IKKi; phosphorylation sites identified: Ser439, Ser494, Thr505, Ser508, Ser513
B1 was tested, and the “stoichiometry N” value was 3.
